Like-named read-outs stand apart in the source and are kept apart here.

Data on four molecules can be found in patent EP4775675A1 (Shanghai Hongcheng Biopharmaceutical Co., Ltd., dated 2026).

Assay [1] deals with T1, human BDCA-2 on cells (Jurkat-hBDCA-2 cells; human pDCs; human PBMCs) (human, UniProt Q8WTT0 1-213).
T1 sequence (looked up): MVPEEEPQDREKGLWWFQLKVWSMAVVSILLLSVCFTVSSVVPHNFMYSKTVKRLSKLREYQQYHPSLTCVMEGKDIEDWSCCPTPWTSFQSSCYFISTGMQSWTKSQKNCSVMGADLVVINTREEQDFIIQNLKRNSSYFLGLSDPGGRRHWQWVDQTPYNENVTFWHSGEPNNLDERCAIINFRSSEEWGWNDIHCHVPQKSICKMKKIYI
As to the kind of experiment: cell-based or functional assay.

The next assay has as its target T2, human CLEC4A (human, UniProt Q9UMR7 70-237, limits assumed).
T2 sequence (looked up): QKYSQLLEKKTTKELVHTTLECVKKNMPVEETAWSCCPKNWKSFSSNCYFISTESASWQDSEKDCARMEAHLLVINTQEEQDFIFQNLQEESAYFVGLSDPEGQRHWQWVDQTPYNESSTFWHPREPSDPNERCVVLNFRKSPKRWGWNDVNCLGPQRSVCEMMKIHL
As to the kind of experiment: ELISA, coated protein 1 µg/ml.

The target in a further assay is T3, human CLEC4E (human, UniProt Q9ULY5 41-219, limits assumed).
T3 sequence (looked up): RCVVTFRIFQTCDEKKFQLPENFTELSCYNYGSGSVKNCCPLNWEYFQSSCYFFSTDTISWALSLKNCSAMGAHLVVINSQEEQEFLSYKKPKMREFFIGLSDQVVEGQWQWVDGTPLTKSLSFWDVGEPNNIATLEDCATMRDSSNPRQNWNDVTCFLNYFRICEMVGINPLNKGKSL
Kind of assay: ELISA, coated protein 1 µg/ml.

The target in the next assay is T4, human CLEC4D (human, UniProt Q8WXI8 39-215, limits assumed).
T4 sequence (looked up): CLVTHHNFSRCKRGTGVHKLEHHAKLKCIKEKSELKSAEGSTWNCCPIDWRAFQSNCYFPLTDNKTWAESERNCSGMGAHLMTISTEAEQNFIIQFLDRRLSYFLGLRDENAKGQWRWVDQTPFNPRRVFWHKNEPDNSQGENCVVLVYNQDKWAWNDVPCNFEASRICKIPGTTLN
As to the kind of experiment: ELISA, coated protein 1 µg/ml.

For a further assay, the target named is T5, human CLEC6A (human, UniProt Q6EIG7 42-209, limits assumed).
T5 sequence (looked up): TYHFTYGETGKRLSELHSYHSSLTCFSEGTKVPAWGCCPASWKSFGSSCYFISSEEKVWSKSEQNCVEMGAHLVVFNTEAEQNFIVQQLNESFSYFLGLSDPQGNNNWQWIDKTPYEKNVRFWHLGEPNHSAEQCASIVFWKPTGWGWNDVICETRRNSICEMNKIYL
Kind of assay: ELISA, coated protein 1 µg/ml.

For assay [2], the target named is T1, human BDCA-2 on cells (Jurkat-hBDCA-2 …). As to the kind of experiment: flow cytometry on Jurkat-hBDCA-2 cells.
Assay [3] concerns the target T6, cynomolgus monkey BDCA-2 on cells (Jurkat-cynoBDCA-2 cells; cynomolgus monkey pDCs) (cynomolgus monkey, UniProt A0A2K5UWP4 1-212).
T6 construct: whole, on cells
T6 sequence: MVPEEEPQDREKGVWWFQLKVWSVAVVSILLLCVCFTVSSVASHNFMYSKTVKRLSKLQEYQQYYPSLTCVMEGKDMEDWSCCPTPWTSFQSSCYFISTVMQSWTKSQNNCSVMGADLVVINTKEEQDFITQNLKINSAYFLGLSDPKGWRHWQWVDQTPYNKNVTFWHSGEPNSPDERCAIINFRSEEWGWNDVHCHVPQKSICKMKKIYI
Kind of assay: flow cytometry on Jurkat-cynoBDCA-2 cells.

Assay [4] has as its target T7, Human BDCA-2 protein (soluble, Octet analyte) (human, UniProt Q8WTT0 45-213, limits assumed).
T7 construct: Soluble protein used as analyte in BLI
T7 sequence (looked up): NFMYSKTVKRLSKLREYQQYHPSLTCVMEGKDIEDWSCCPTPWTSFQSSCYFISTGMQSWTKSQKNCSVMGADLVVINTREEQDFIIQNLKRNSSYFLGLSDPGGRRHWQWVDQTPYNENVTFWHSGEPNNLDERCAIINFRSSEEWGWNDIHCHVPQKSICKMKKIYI
Kind of assay: BLI (Octet Red96e), antibody on anti-human IgG sensor, human BDCA-2 protein in solution. (BLI is a label-free optical method that tracks binding on a fibre tip over time.)

For assay [5], the target named is T1, human BDCA-2 on cells (Jurkat-hBDCA-2 …). As to the kind of experiment: cell-based or functional assay. This is another data set of the same source.
Assay [6] shares this target. Kind of assay: flow cytometry on Jurkat-hBDCA-2 cells. This is another data set of the same source. Background: A flow cytometer gives signals particle by particle.
Assay [7] concerns the target T6, cynomolgus monkey BDCA-2 on cells …. Kind of assay: flow cytometry on Jurkat-cynoBDCA-2 cells. The source holds these as a separate data set.

B1: 17G6A2_hzH2L6_hIgG1 (antibody, V domains shown)
VH: EVQLVESGGGLVKPGGSLRLSCAASGFTFSSYGMSWVRQAPGKGLEWVATISSGDSYTYYPDSVKGRFTISRDNAKNSLYLQMNSLRAEDTAVYYCARQLYYSYGYYFDYWGQGTTVTVSS
VL: DIVLTQSPASLAVSPGQRATITCRASESVSFHGTHLMHWYQQKPGQPPKLLIYAASNLESGVPARFSGSGSGTDFTLTINPVEANDAANYYCQQSIEDPPTFGGGTKVEIKR
notes: Humanized, human IgG1/kappa (hzVH02 + hzVL06)
In the case of B1, in assay [1], the “EC50, inhibition of CpGA-induced type I interferon (IFNα) production in human PBMC cells” value (“EC50, inhibition” for short) was 1.7 ng/mL. Moreover, the binding result in the assay with human CLEC4A, with human CLEC4E, with human CLEC4D and with human CLEC6A was “no binding (tested: 10 µg/ml)” in each case. Also, the EC50 (in general, the concentration at which the effect is half-maximal) in assay [2] is 0.0701 µg/mL; in assay [3], 0.106 µg/mL. Besides, the Kd (usually the concentration at which binding is half-saturated) in [4] turned out to be 3 nM. In addition, the koff (in general, the first-order rate constant of dissociation) in assay [4] came to 0.000309 s⁻¹. Also, the association rate constant (kon) (in general, a measure of how fast the partners come together) in assay [4] was 101000 M⁻¹ s⁻¹.

B2: 17G6A2_hzH2L8_hIgG1 (antibody, V domains shown)
VH: EVQLVESGGGLVKPGGSLRLSCAASGFTFSSYGMSWVRQAPGKGLEWVATISSGDSYTYYPDSVKGRFTISRDNAKNSLYLQMNSLRAEDTAVYYCARQLYYSYGYYFDYWGQGTTVTVSS
VL: DIVLTQSPASLAVSPGQRATITCRASESVSFHGTHLMHWYQQKPGQPPKLLIYAASNLESGVPARFSGSGSETDFTLTINPVEANDAANYYCQQSIEDPPTFGGGTKVEIKR
notes: Humanized, human IgG1/kappa (hzVH02 + hzVL08)
For the molecule B2, the “EC50, inhibition” value in assay [1] amounted to 1.1 ng/mL. For the same molecule, the binding result with human CLEC4A, with human CLEC4E, in the assay with human CLEC4D and with human CLEC6A was “no binding (tested: 10 µg/ml)” each time. Further, the EC50 in assay [2] amounted to 0.0222 µg/mL; in assay [3], 0.0383 µg/mL. The molecule also came in with an equilibrium dissociation constant (Kd) in assay [4] of 1.7 nM. In [4], this molecule returned a koff of 0.000261 s⁻¹. Further, the on-rate (kon) in assay [4] came out at 154000 M⁻¹ s⁻¹.

B3: 17G6A2_hzH2L7_hIgG1 (antibody, V domains shown)
VH: EVQLVESGGGLVKPGGSLRLSCAASGFTFSSYGMSWVRQAPGKGLEWVATISSGDSYTYYPDSVKGRFTISRDNAKNSLYLQMNSLRAEDTAVYYCARQLYYSYGYYFDYWGQGTTVTVSS
VL: DIVLTQSPASLAVSPGQRATITCRASESVSFHGTHLMHWYQQKPGQPPKLLIYAASNLESGVPARFSGSGSETDFTLTINPVEAEDTANYYCQQSIEDPPTFGGGTKVEIKR
notes: Humanized, human IgG1/kappa (hzVH02 + hzVL07)
Consider B3, for which, in [1], the “EC50, inhibition” value was found to be 1.1 ng/mL. Also, the binding result with human CLEC4A, in the assay with human CLEC4E, with human CLEC4D and in the assay with human CLEC6A was “no binding (tested: 10 µg/ml)” each time. Also, the 50% effective concentration (EC50) in assay [2] turned out to be 0.0608 µg/mL; in assay [3] it was 0.0988 µg/mL. For the same molecule, in [4], the affinity, expressed as Kd, was 1.8 nM. For the same molecule, the off-rate constant (koff) in assay [4] is 0.000311 s⁻¹. This molecule yielded an on-rate constant (kon) in [4] of 174000 M⁻¹ s⁻¹.

B4: 17G6A2 (murine hybridoma monoclonal antibody) (antibody, V domains shown)
VH: EVQLVESGGDLVKPGGSLKLSCAASGFTFSSYGMSWVRQTPDKRLEWVATISSGDSYTYYPDSVKGRFTISRDNAKNTLYLQMSSLKSEDTAMYYCARQLYYSYGYYFDYWGQGTTLTVSS
VL: DIVLTQSPASLAVSLGQRATISCRASESVSFHGTHLMHWYQQKPGQPPKLLIYAASNLESGVPARFSGSGSETDFTLNIHPVEEEDAATYFCQQSIEDPPTFGGGTKLEIK
notes: also called hybridoma 17G6A2; hybridoma antibody 17G6A2
Turning to B4, in assay [5], the “EC50, inhibition” value was found to be 54.2 ng/mL. The EC50 is 0.0968 µg/mL in assay [6] and 0.107 µg/mL in [7].
